{"source": "patent US20130078188", "key": {"[1]": {"biological_target": "T1, Cy7-NH-e9-c(S-Peg12) oPPRSFL-r9-c(Cy5)-CONH2 (10, …)", "T1 chain": "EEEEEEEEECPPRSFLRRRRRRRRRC"}, "[2]": {"biological_target": "T2, Cy7-NH-e9-c(S-Peg12) oDPRSFL-r9-c(Cy5)-CONH2 (5, …)", "T2 chain": "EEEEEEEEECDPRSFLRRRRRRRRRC"}, "[3]": {"biological_target": "T3, Cy7-NH-e9-c(S-Peg12)oPLGC(Me)AG-r9-c(Cy5)-CONH2 (20, …(Me)AG)", "T3 chain": "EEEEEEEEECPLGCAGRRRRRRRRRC"}}}
{"protein": "plasmin (protein) KVYLSECKTGNGKNYRGTMSKTKNGITCQKWSSTSPHRPRFSPATHPSEGLEENYCRNPDNDPQGPWCYTTDPEKRYDYCDILECEEECMHCSGENYDGKISKTMSGLECQAWDSQSPHAHGYIPSKFPNKNLKKNYCRNPDRELRPWCFTTDPNKRWELCDIPRCTTPPPSSGPTYQCLKGTGENYRGNVAVTVSGHTCQHWSAQTPHTHNRTPENFPCKNLDENYCRNPDGKRAPWCHTTNSQVRWEYCKIPSCDSSPVSTEQLAPTAPPELTPVVQDCYHGDGQSYRGTSSTTTTGKKCQSWSSMTPHRHQKTPENYPNAGLTMNYCRNPDADKGPWCFTTDPSVRWEYCNLKKCSGTEASVVAPPPVVLLPDVETPSEEDCMFGNGKGYRGKRATTVTGTPCQDWAAQEPHRHSIFTPETNPRAGLEKNYCRNPDGDVGGPWCYTTNPRKLYDYCDVPQCAAPSFDCGKPQVEPKKCPGRVVGGCVAHPHSWPWQVSLRTRFGMHFCGGTLISPEWVLTAAHCLEKSPRPSSYKVILGAHQEVNLEPHVQEIEVSRLFLEPTRKDIALLKLSSPAVITDKVIPACLPSPNYVVADRTECFITGWGETQGTFGAGLLKEAQLPVIENKVCNRYEFLNGRVQSTELCAGHLAGGTDSCQGDSGGPLVCFEKDKYILQGVTSWGLGCARPNKPGVYVRVSRFVTWIEGVMRNN", "values": [{"measurement": "kcat/Km, fold lower than for thrombin", "setting": "[1]", "value": 14.3, "unit": "fold lower kcat/Km"}, {"measurement": "kcat/Km", "setting": "[2]", "value": 10000, "unit": "M⁻¹ s⁻¹"}, {"measurement": "peptide cleavage, SDS-PAGE with Cy5/Cy7 ratio imaging", "setting": "[3]", "value": "not cleaved by any of the pro-coagulation enzymes"}]}
